Assay results as given in paper PMC6599006, “Rational design using sequence information only produces a peptide that binds to the intrinsically disordered region of p53” (Scientific Reports, 2019).

Columns and labels:
Assay in all cases: fluorescence anisotropy
Details in all cases: 2 mM Mg2+, 20 mM HEPES pH 7.9, 100 mM KCl, 2 mM MgCl2, 0.5 mM EDTA, 1 mM DTT, 0.2 mg/mL BSA, 5 nM 6-FAM-DNA, 25 C
CoreTet mutant (human) = tested on: CoreTet mutant (human)
[1] = tested on: FL-p53 (thermostable, cysteine-modified mutant) (human)
TetCT mutant (human) = tested on: TetCT mutant (human)

Row | Substance | Kd (CoreTet mutant (human); 600 uM DP6) | Kd (CoreTet mutant (human); no DP6) | Kd ([1]; 75 uM DP6) | Kd ([1]; 150 uM DP6) | Kd ([1]; 300 uM DP5) | Kd ([1]; 300 uM DP6) | Kd ([1]; 450 uM DP6) | Kd ([1]; 600 uM DP5) | Kd ([1]; 600 uM DP6) | Kd ([1]; no DP5 (DP5 series)) | Kd ([1]; no DP6) | Kd (TetCT mutant (human); 75 uM DP6) | Kd (TetCT mutant (human); no DP6)
1 | spDNA (p21) | 0.013 µM | 0.019 µM | 0.0092 µM | 0.012 µM | 0.0085 µM | 0.02 µM | 0.022 µM | 0.0053 µM | 0.021 µM | 0.0066 µM | 0.0072 µM | – | –
2 | nspDNA (random sequence) | – | – | 0.032 µM | 0.057 µM | 0.055 µM | 0.09 µM | 0.13 µM | 0.061 µM | 0.16 µM | 0.049 µM | 0.024 µM | 0.34 µM | 0.11 µM
